# Data: US20200087347 (published 2020)
# Where no end group is shown, it is not given here. Side-chain parts run from the residue outwards. [ ]: non-standard residue; d: D form. The star is where a group is joined. BODIPY(FL) = CC1=CC(C)=[N+]2C1=Cc1ccc(CCC(=O)*)n1[B-]2(F)F; NMeK = CN[C@@H](CCCCN)C(=O)O; Ahx = NCCCCCC(=O)O; BDPFL = dye
# Experiments:
# Experiment in all cases: competition
# integrin αvβ3 = biological target: T1, integrin αvβ3 (human, UniProt P06756)
# T1 chain 1: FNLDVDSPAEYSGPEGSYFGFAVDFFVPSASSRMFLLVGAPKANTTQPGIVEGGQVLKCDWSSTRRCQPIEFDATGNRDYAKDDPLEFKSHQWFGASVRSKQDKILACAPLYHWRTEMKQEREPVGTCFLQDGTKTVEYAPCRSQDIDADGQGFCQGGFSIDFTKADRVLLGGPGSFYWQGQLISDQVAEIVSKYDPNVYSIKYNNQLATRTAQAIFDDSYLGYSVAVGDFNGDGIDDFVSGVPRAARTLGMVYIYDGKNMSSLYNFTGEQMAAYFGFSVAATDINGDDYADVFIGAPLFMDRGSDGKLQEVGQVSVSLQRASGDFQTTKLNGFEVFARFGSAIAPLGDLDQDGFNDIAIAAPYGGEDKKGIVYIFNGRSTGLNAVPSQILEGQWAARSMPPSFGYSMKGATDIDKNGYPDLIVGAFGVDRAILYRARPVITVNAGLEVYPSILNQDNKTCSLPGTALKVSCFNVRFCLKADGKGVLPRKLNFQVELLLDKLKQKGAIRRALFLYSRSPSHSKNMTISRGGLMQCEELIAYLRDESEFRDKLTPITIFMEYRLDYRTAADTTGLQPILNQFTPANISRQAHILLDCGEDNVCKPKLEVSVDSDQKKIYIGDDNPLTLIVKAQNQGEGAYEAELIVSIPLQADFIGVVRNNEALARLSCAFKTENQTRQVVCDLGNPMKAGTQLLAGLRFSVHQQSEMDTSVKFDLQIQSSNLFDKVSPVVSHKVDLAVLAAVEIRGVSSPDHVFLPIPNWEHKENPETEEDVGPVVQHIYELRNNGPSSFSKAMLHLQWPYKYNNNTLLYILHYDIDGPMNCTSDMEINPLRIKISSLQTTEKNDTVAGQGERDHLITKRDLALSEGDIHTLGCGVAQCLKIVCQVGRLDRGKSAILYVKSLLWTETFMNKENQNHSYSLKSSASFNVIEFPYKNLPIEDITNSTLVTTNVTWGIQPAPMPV
# T1 chain 2: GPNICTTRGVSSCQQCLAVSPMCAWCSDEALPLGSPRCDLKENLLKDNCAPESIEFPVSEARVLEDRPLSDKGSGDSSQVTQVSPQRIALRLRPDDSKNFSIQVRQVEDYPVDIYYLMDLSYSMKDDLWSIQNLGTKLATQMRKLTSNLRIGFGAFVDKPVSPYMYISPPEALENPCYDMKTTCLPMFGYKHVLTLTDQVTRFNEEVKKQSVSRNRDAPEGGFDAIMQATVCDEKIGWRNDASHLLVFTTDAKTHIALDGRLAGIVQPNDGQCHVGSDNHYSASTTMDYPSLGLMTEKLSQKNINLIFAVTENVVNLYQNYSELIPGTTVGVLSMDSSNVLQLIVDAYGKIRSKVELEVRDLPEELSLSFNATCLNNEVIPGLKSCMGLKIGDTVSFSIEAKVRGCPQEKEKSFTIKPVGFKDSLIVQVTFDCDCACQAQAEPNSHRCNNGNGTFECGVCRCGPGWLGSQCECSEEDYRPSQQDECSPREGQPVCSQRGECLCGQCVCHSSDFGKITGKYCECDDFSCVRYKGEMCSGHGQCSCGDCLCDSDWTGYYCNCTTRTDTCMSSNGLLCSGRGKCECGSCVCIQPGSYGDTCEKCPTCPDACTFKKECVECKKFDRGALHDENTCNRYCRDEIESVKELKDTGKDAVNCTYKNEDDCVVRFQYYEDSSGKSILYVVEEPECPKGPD
# integrin αvβ6 = biological target: T2, integrin αvβ6 (human, UniProt P06756)
# T2 chain 1: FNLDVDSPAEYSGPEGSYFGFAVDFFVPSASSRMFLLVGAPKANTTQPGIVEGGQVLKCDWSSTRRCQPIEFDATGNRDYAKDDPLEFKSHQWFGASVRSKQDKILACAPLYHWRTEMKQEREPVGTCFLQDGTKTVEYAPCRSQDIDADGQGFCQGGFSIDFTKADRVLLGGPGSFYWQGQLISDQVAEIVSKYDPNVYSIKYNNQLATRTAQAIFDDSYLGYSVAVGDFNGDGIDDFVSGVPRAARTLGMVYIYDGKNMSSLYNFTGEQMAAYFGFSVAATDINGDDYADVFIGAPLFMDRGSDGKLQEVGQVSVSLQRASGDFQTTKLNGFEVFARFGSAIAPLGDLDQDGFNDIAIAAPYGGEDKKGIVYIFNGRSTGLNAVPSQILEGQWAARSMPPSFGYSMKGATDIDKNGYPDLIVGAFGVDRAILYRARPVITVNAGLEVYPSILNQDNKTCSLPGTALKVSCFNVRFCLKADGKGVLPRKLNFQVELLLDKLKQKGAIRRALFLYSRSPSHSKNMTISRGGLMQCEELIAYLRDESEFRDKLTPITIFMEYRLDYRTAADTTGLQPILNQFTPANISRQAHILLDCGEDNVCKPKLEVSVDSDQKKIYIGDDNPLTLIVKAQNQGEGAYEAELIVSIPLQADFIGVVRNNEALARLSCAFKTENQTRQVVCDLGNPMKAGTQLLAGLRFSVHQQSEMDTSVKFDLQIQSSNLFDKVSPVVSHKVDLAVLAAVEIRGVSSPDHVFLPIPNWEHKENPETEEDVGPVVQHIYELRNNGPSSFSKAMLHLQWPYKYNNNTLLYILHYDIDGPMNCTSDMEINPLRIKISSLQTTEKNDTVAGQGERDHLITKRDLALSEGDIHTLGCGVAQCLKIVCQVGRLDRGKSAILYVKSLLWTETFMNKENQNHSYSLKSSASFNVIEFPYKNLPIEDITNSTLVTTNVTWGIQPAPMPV
# T2 chain 2: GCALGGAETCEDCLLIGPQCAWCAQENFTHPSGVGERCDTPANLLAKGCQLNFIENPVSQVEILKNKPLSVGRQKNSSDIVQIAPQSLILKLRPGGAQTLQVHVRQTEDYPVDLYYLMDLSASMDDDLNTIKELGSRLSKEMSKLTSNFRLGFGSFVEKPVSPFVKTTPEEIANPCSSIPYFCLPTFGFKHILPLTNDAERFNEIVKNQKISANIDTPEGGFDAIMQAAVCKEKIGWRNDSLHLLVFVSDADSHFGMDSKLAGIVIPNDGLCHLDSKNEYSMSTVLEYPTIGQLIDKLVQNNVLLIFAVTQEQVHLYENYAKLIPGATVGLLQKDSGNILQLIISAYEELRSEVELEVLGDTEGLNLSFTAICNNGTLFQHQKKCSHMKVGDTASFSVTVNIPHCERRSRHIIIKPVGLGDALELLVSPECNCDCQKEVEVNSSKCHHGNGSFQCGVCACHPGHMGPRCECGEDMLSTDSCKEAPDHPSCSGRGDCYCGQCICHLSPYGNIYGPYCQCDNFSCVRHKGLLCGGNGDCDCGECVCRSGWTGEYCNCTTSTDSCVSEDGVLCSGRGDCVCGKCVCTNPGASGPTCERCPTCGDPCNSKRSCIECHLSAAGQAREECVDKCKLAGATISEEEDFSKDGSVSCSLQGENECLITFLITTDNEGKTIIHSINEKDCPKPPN
# integrin αvβ5 = biological target: T3, integrin αvβ5 (human, UniProt P06756)
# T3 chain 1: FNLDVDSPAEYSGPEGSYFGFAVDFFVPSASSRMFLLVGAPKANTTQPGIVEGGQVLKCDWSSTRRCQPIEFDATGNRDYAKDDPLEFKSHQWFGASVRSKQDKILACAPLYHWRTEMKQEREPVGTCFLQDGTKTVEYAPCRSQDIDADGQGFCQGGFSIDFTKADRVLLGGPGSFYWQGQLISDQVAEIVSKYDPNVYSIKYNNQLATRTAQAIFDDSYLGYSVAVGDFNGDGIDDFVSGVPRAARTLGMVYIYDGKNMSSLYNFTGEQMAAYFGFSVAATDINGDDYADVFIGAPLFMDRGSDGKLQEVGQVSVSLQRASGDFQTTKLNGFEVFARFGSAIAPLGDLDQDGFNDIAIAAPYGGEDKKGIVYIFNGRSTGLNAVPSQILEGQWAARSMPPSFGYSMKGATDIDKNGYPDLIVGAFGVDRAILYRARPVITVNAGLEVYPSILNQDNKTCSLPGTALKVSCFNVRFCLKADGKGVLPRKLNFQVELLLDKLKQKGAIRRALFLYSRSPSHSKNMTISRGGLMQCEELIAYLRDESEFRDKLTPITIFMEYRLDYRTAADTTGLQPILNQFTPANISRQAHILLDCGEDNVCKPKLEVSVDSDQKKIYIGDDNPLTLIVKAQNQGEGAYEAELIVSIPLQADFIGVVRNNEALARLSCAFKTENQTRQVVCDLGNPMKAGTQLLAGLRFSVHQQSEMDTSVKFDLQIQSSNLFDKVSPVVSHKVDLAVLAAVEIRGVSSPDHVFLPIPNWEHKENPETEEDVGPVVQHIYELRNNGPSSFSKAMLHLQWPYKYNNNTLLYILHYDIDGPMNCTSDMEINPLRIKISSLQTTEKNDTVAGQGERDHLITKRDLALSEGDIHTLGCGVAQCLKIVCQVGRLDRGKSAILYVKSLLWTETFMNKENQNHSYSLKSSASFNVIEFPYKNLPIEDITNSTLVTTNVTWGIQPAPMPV
# T3 chain 2: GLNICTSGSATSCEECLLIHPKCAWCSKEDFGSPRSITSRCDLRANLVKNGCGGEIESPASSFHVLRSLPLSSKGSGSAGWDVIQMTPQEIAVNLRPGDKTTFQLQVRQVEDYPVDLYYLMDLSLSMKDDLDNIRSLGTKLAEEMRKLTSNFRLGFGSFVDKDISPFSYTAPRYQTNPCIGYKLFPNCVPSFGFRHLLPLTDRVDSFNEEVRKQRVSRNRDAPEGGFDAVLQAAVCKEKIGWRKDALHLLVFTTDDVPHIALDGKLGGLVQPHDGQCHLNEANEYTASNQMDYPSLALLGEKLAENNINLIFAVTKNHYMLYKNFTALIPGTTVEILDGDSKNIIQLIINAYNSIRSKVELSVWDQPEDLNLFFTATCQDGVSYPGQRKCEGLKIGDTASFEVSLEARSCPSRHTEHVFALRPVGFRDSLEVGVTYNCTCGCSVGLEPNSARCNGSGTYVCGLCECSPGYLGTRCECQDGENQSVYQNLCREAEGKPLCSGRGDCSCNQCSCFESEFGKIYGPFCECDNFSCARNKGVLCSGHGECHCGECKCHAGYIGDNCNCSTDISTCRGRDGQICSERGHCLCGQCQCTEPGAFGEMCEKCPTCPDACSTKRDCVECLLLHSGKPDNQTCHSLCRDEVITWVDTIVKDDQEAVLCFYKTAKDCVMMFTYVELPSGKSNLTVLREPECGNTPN
# integrin α5β1 = integrin α5β1 (human, UniProt P08648)
# Chain of integrin α5β1 (P08648 42-1049, chain 1 of 2): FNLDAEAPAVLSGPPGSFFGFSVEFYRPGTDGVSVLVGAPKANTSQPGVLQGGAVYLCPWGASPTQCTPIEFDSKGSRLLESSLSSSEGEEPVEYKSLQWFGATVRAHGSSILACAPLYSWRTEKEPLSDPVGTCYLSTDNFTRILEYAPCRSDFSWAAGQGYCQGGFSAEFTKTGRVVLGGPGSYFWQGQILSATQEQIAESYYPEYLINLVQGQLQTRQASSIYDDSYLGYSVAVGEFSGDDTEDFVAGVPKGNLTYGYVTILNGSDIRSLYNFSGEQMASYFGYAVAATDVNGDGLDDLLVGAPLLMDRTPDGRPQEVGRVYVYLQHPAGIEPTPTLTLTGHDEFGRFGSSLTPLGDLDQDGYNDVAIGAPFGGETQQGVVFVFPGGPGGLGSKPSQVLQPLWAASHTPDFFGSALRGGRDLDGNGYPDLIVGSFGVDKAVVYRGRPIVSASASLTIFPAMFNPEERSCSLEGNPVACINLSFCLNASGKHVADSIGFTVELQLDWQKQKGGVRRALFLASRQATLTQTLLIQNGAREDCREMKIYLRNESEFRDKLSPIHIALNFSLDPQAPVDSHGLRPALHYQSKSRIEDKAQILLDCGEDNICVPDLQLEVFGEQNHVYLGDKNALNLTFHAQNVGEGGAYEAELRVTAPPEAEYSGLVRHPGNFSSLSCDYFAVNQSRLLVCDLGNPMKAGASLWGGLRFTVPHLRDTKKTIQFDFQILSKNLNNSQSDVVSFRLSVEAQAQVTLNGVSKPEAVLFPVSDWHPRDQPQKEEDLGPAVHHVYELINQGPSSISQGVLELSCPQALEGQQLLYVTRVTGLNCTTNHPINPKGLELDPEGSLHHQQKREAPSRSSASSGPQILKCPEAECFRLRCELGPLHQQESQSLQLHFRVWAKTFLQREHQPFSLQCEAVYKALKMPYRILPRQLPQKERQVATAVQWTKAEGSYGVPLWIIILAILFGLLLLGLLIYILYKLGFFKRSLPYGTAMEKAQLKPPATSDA
# Chain of integrin α5β1 (chain, as listed by the source, chain 2 of 2): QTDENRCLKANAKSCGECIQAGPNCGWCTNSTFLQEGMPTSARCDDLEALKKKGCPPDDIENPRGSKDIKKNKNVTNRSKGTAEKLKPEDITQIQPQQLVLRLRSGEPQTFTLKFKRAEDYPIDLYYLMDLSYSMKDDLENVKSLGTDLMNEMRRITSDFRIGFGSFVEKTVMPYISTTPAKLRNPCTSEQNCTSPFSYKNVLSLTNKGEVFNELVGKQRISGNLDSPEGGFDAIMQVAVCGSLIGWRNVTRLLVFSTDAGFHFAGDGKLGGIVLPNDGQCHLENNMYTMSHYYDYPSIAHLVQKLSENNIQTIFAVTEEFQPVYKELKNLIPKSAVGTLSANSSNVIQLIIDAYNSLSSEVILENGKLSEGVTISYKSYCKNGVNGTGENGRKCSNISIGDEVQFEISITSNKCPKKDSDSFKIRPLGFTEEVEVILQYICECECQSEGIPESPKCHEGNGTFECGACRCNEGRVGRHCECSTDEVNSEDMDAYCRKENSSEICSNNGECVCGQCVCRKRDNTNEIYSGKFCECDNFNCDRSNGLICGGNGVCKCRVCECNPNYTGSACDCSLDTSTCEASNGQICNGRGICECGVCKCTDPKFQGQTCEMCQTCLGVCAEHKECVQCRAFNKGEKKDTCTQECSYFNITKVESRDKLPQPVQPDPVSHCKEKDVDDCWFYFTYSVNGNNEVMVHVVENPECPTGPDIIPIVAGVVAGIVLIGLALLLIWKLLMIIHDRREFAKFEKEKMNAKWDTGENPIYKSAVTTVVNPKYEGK
# integrin αvβ8 = biological target: T4, integrin αvβ8 (human, UniProt P06756)
# T4 chain 1: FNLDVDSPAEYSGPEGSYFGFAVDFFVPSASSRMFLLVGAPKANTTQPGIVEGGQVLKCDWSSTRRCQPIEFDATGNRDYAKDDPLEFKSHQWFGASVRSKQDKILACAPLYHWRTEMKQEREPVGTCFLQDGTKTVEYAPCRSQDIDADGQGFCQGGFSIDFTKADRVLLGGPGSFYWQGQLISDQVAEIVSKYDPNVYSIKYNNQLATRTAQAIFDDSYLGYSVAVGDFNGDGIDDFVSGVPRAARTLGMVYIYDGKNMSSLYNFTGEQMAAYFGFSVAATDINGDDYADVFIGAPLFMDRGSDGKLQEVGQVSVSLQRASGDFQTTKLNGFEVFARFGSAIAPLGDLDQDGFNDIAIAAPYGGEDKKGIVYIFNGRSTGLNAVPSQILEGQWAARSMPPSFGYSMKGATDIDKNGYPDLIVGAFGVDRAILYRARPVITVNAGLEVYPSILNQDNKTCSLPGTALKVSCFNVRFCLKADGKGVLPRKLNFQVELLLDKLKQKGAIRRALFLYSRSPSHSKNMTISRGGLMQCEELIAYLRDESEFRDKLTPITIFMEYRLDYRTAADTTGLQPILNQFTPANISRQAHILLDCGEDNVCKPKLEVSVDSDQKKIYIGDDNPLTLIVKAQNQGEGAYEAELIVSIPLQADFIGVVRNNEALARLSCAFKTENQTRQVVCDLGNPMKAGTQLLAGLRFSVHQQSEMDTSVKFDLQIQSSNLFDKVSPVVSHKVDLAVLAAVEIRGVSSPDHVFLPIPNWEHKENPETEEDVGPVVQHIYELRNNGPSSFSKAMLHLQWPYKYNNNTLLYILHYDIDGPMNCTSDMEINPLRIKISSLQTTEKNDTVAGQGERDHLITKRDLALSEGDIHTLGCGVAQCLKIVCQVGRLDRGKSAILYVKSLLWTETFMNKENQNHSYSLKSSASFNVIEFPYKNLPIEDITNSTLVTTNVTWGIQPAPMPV
# T4 chain 2: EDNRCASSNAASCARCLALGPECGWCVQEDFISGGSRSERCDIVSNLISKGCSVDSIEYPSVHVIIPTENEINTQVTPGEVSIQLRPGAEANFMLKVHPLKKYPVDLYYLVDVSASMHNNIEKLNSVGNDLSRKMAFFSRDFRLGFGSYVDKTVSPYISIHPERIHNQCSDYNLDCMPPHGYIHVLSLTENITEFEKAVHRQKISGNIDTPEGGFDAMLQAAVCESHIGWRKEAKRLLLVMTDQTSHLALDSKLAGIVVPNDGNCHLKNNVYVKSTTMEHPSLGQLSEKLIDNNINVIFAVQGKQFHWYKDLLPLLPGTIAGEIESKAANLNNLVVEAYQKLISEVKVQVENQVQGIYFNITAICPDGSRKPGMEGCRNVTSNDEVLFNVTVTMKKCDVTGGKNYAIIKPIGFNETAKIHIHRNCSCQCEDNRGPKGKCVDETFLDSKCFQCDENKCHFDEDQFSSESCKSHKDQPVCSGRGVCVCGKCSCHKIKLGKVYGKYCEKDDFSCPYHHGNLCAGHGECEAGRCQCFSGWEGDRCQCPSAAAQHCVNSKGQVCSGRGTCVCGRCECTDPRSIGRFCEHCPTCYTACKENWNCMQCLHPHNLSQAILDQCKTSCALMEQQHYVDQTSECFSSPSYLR
# integrin αIIbβ3 = integrin αIIbβ3 (human, UniProt P08514)
Binder,IC50 (integrin αvβ3),IC50 (integrin αvβ6),IC50 (integrin αvβ5),IC50 (integrin α5β1),IC50 (integrin αvβ8),IC50 (integrin αIIbβ3)
cyclo(RGDL[dP][NMeK](BDPFL)GL) [Compound 9a (9-BDPFL)],676 nM,94 nM,> 10000 nM,1470 nM,0.66 nM,–
cyclo(RGDL[dP][NMeK]([Ahx-BDPFL])GL) [Compound 9b (9-Ahx-BDPFL)],239 nM,55 nM,> 10000 nM,> 1000 nM,0.87 nM,> 1000 nM
"RGDL[dP][NMeK]([Gly-Pro-Pro-Pro-Gly-BODIPY(FL)])GL (not fully specified (bridges); also: cyclic, closure not given here) [Compound 9e (9-G(P)3G-BDPFL)]",585 nM,247 nM,> 10000 nM,979 nM,2.07 nM,–
